In PMC3114773:

Target: β-arrestin2 (β-arr2) (UniProt Q91YI4)
Assay: co-IP, anti-Myc IP, anti-GFP blot
Settings: reference: wild type; sites S592,S594,T597,S599,S615,S619,S620,S642,S666,S774,S777,S791

binding against the reference: weaker
Substance: Smo (mSmo, mammalian Smoothened) (from UniProt P56726) SA mutant (taken as SA0–5)
